Tests used:
hCCLZ (human myocilin …) = target: T1, hCCLZ (human myocilin coiled-coil/leucine zipper, residues 69-185) (human, UniProt Q99972 69-185); assay: dot blot, purified construct
T1 construct: Made in E. coli (pET-30 XaLIC); Tags were cleaved for immunization and panning; the tagged form was used in cell-lysate dot blots; also called human coiled-coil/leucine zipper
T1 sequence: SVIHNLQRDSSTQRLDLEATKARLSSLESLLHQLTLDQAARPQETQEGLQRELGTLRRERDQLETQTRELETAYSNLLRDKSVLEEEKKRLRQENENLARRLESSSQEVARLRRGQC
Method: (§1) Dot Blots and Western Blots: Dot and western blots were conducted using protocols previously described in detail (Patterson-Orazem, et al., Exp Eye Res, 173:109-112 (2018)). Briefly, protein samples were immobilized on methanol-activated polyvinylidene difluoride membranes (Millipore®) by electrophoresis for Western blots and by direct deposition of 2 μL sample per dot for dot blots. Membranes were blocked overnight in 2% milk in PBS supplemented with 0.5% TWEEN-20, then probed with primary antibodies. Custom scAbs were tested at 1 μg/mL; IgGs were tested at 0.5 μg/mL to account for bivalency. Protein expression in cell lysates was confirmed using 1:1000 mouse anti-His antibody (RRID: AB_2533947). […] Custom scAbs were detected with 1:2000 (whole cell lysate dot blots) or 1:5000 (all other experiments) dilution of HRP-conjugated goat anti-human κ light chain secondary antibody (RRID: AB_619883). Binding of control antibodies and custom IgGs was detected using 1:2000 (whole cell lysate dot blots) or 1:5000 (all other experiments) dilution of HRP-conjugated goat anti-mouse IgG (H+L) secondary antibody (RRID: AB_2533947).
(§2) Conformational specificity was assessed by comparing results from dot blots (FIGS. 4A-4D) and Western blots (FIG. 4E-4H), experiments were conducted in parallel with specific quantities of purified myocilin constructs. […]

[1] = target: T2, hNTD (human myocilin N-terminal domain, residues 33-226) (human, UniProt Q99972 33-226); assay: dot blot, purified construct
T2 construct: also called longer hNTD construct
T2 sequence: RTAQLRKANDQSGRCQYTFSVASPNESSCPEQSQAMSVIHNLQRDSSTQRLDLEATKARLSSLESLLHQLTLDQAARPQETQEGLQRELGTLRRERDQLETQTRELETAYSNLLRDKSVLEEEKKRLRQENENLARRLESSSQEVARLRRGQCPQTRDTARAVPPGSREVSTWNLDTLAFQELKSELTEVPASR
Method: as §1, §2

[2] = target: T3, mLZ (mouse myocilin leucine zipper, residues 93-171) (mouse, UniProt O70624 93-171); assay: summary of ELISA and dot blot
T3 construct: Arose when Factor Xa cleaved mCCLZ after TLGR92; also called mouse leucine zipper; mouse LZ
T3 sequence: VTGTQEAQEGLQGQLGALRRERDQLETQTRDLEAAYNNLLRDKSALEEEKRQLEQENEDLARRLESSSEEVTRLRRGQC

[3] = target: T4, full-length endogenous human myocilin from spent medium of human trabecular meshwork (hTM) cells (human, UniProt Q99972 33-504); assay: immunoprecipitation from spent hTM medium
T4 construct: Secreted protein; It was heparin-enriched for dot blots and used directly from spent medium for immunoprecipitation; also called full-length myocilin; hTM-secreted myocilin
T4 sequence: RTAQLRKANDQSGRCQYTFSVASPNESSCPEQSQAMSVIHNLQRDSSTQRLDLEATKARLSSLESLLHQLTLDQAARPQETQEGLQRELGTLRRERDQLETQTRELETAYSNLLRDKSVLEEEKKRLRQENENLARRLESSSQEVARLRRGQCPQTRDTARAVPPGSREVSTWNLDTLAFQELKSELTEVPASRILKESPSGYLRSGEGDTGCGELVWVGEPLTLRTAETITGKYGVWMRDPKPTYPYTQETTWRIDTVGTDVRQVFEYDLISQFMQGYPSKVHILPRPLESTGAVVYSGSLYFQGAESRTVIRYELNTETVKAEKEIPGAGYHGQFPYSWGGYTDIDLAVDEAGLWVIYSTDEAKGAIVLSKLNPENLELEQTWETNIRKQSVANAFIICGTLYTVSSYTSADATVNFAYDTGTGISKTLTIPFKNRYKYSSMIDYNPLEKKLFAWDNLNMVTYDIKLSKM
Method: Immunoprecipitation: Antibodies in IgG format (0.5 ng/ml) were incubated with 10 mL spent hTM medium (experiment) or 10 mL buffer control (50 mM HEPES pH 7.5, 200 mM NaCl, 10% glycerol) overnight at 4° C. on a rocker. Subsequently, Pierce™ Protein A/G Plus agarose suspension (50 μL, ThermoFisher Scientific®) was added, and samples were rocked an additional 2 hours at room temperature. Resin was pelleted by centrifugation (10 minutes at 1,000× g), washed at least 5 times with 500 uL buffer. Bound proteins were eluted by adding 50 μL 2× Laemmli buffer, incubated for 10 minutes at room temperature, followed by pelleting and removing the supernatant. Samples were supplemented to 3% v/v β-mercaptoethanol and heated 10 minutes at 95° C. prior to SDS-PAGE and Western blot analysis.

Measured: binding result

B1: 2A4 IgG (monoclonal antibody 2A4) (antibody, V domains shown)
VH: EVQLQQSGAELMRSGASVKLSCTASGFNIKDYYMHWVKQRPEQGLEWIGWIDPENGDTEYAPKFQGKATMTADTSSNTAYLQLSSLTSEDTAVYYCNPFVYWGQGTLVTVSA
VL: DIVMTQSQKFMSTSVGDRVSVTCKASQNVGTNVAWYQQKPGQSPKALIYSASYRYSGVPDRFTGSGSGTDFTLTISNVQSEDLAEYSCQQYNSYPYTFGGGTKLEIKR
notes: Full length chimeric human IgG1 with kappa light chain (IgG-Abvec and IgK-Abvec vectors), produced in CHO-K1 cells
binds: hCCLZ (human myocilin …) | [1] | [2] | [3]
